For the test, the target named is mouse laminin (mouse). The experiment in a line: ELISA; ELISA-type: mouse laminin coated on a black polystyrene plate, 50 µg/mL biotinylated-Gal-8, 37 °C 1 h, Streptavidin-Alexa 488, fluorescence (RFU). For orientation: An ELISA detects its analyte on a solid surface through an enzyme-linked reagent.

Regarding “biotinylated human Galectin-8 (natural protein)”, the relative fluorescence units (RFU) was determined as 4000 RFU.

The values above are taken from paper PMC12467718.
